In patent US20220251595A1, “ENGINEERED ATRLP23 PATTERN RECOGNITION RECEPTORS AND METHODS OF USE” (priority 2019, published 2022):

B1: AtRLP23-3×FLAG: AtRLP23 (amino acids 1-890) linked to the 3×FLAG peptide; SEQ ID NO: 13 (nucleotide), 14 (protein) (protein)
chain: MSKALLHLHFLSLFLLCCVCHSSIFTLNFHFTGIVACRPHQIQAFTKFTNEFDTRGCNNSDTFNGVWCDNSTGAVAVLQLRKCLSGTLKSNSSLFGFHQLRYVDLQNNNLTSSSLPSGFGNLKRLEGLFLSSNGFLGQVPSSFSNLTMLAQLDLSYNKLTGSFPLVRGLRKLIVLDLSYNHFSGTLNPNSSLFELHQLRYLNLAFNNFSSSLPSKFGNLHRLENLILSSNGFSGQVPSTISNLTRLTKLYLDQNKLTSSFPLVQNLTNLYELDLSYNKFFGVIPSSLLTLPFLAHLALRENNLAGSVEVSNSSTSSRLEIMYLGSNHFEGQILEPISKLINLKHLDLSFLNTSYPIDLKLFSSLKSLRSLDLSGNSISSASLSSDSYIPLTLEMLTLRHCDINEFPNILKTLKELVYIDISNNRMKGKIPEWLWSLPLLQSVTLGNNYFTGFQGSAEILVNSSVLLLYLDSNNFEGALPDLPLSIKGFGVASNSFTSEIPLSICNRSSLAAIDLSYNNFTGPIPPCLRNLELVYLRNNNLEGSIPDALCDGASLRTLDVSHNRLTGKLPRSFVNCSSLKFLSVINNRIEDTFPFWLKALPNLQVLTLRSNRFYGPISPPHQGPLGFPELRIFEISDNKFTGSLPPNYFVNWKASSRTMNQDGGLYMVYEEKLFDEGGYGYTDALDLQYKGLHMEQAKALTSYAAIDFSGNRLEGQIPESIGLLKALIAVNISNNAFTGHIPLSMANLENLESLDMSRNQLSGTIPNGLGSISFLAYINVSHNQLTGEIPQGTQITGQSKSSFEGNAGLCGLPLKESCFGTGAPPMYHQKQEDKEEEEEEEEEEEEVLNGRAVAIGYGSGLLLGLAIAQVIASYKPEWLVKIIGLNKRRKRSDYKDHDGDYKDHDLDAAAADYKDDDDK
modifications: Fusion protein
B2: AtRLP23-eJM(EEEE/ADQ−)-3×FLAG (protein)
chain: SIFTLNFHFTGIVACRPHQIQAFTKFTNEFDTRGCNNSDTFNGVWCDNSTGAVAVLQLRKCLSGTLKSNSSLFGFHQLRYVDLQNNNLTSSSLPSGFGNLKRLEGLFLSSNGFLGQVPSSFSNLTMLAQLDLSYNKLTGSFPLVRGLRKLIVLDLSYNHFSGTLNPNSSLFELHQLRYLNLAFNNFSSSLPSKFGNLHRLENLILSSNGFSGQVPSTISNLTRLTKLYLDQNKLTSSFPLVQNLTNLYELDLSYNKFFGVIPSSLLTLPFLAHLALRENNLAGSVEVSNSSTSSRLEIMYLGSNHFEGQILEPISKLINLKHLDLSFLNTSYPIDLKLFSSLKSLRSLDLSGNSISSASLSSDSYIPLTLEMLTLRHCDINEFPNILKTLKELVYIDISNNRMKGKIPEWLWSLPLLQSVTLGNNYFTGFQGSAEILVNSSVLLLYLDSNNFEGALPDLPLSIKGFGVASNSFTSEIPLSICNRSSLAAIDLSYNNFTGPIPPCLRNLELVYLRNNNLEGSIPDALCDGASLRTLDVSHNRLTGKLPRSFVNCSSLKFLSVINNRIEDTFPFWLKALPNLQVLTLRSNRFYGPISPPHQGPLGFPELRIFEISDNKFTGSLPPNYFVNWKASSRTMNQDGGLYMVYEEKLFDEGGYGYTDALDLQYKGLHMEQAKALTSYAAIDFSGNRLEGQIPESIGLLKALIAVNISNNAFTGHIPLSMANLENLESLDMSRNQLSGTIPNGLGSISFLAYINVSHNQLTGEIPQGTQITGQSKSSFEGNAGLCGLPLKESCFGTGAPPMYHQKQEDKEEEEAEEDEQEVLNGRAVAIGYGSGLLLGLAIAQVIASYKPEWLVKIIGLNKRRKRSDYKDHDGDYKDHDLDAAAADYKDDDDK

Tested on: corn protoplasts
Test: Calcium burst in transiently transfected corn protoplasts, R-GECO1.2 fluorescence reporter
Assay type: cell-based, Zea mays
Conditions: transient expression in corn protoplasts; 1 μM PpNLP20
Text: Following ligand (also known as elicitor) binding, PRRs are activated and induce a transient increase of cytosolic Ca^2+ concentration as part of a PTI response. […] In a high-throughput method, the kinetics of PRR-dependent transient variation of cytosolic Ca^2+ concentration can be measured with a fluorimeter or luminometer and in microplate formats of 96 or 384 wells.
Fluorescence was monitored using a fluorimeter equipped with a 100 Hz xenon flash lamp with excitation at 556 nm and emission measured at 585 nm for 100 ms, every 22.6 seconds for 42 minutes.
All of the AtRLP23 constructs have an operably linked 2×35S+Ω promoter construct (SEQ ID NO: 72) and an operably linked rbcS terminator (SEQ ID NO: 73)
Fluorescence was monitored using a fluorimeter equipped with a 100 Hz xenon flash lamp with excitation at 556 nm and emission measured at 585 nm for 30 ms, every 20.2 seconds for 40 minutes. For each fluorescence measurement, the transient change in R-GECO1.2 fluorescence (ΔF) are calculated from background corrected intensity values as (F-Fo), where F represents the average fluorescence intensity of the a batch of protoplasts treated with elicitor, and Fo represents the average fluorescence intensity of the same batch of protoplasts treated with a control solution that lacks the elicitor but is otherwise identical or essentially identical in composition to the solution comprising the elicitor.

Row | Molecule | Ca^2+ increase in response to PpNLP20 treatment (R-GECO1.2 fluorescence)
1 | B1 | significant Ca^2+ increase
2 | B2 | Ca^2+ increase
